Assay results published in patent US20170082621A1.

Assays:
[1] = molecular target: HP-NAPY101H (Helicobacter pylori strain 26695) (UniProt P43313); assay: western blot of E. coli lysates, normalised by Ponceau S to wild-type HP-NAP
[2] = molecular target: HP-NAPE97GY101H (Helicobacter pylori strain 26695) (UniProt P43313); assay: as above
[3] = molecular target: Helicobacter pylori neutrophil-activating protein (HP-NAP) of H. pylori 26695 (Helicobacter pylori strain 26695) (UniProt P43313); assay: cell-based or functional assay
[4] = molecular target: HP-NAPY101H (Helicobacter pylori strain 26695) (UniProt P43313); assay: recombinant HP-NAP-based ELISA, antibody X at 600 ng/ml
[5] = molecular target: HP-NAPE97GY101H (Helicobacter pylori strain 26695) (UniProt P43313); assay: as above

antibody X, commercial IgG/M2 monoclonal antibody (Sigma, F-3165)
western-blot signal intensity compared to wild-type HP-NAP [1]: 11%
western-blot signal intensity compared to wild-type HP-NAP [2]: 9%
inhibition of ROS production upon two hours of HP-NAP stimulation (H2DCF-DA fluorescence) [3]: 93.2%
ELISA signal compared to wild-type HP-NAP [4]: 60%
ELISA signal compared to wild-type HP-NAP [5]: 33%
